According to publication PMC10786891, “Massively parallel profiling of RNA-targeting CRISPR-Cas13d”:

T1: EsCas13d, nuclease-dead (Eubacterium siraeum, UniProt B0MS50, R295A;H300A;R849A;H854A)
T1 sequence: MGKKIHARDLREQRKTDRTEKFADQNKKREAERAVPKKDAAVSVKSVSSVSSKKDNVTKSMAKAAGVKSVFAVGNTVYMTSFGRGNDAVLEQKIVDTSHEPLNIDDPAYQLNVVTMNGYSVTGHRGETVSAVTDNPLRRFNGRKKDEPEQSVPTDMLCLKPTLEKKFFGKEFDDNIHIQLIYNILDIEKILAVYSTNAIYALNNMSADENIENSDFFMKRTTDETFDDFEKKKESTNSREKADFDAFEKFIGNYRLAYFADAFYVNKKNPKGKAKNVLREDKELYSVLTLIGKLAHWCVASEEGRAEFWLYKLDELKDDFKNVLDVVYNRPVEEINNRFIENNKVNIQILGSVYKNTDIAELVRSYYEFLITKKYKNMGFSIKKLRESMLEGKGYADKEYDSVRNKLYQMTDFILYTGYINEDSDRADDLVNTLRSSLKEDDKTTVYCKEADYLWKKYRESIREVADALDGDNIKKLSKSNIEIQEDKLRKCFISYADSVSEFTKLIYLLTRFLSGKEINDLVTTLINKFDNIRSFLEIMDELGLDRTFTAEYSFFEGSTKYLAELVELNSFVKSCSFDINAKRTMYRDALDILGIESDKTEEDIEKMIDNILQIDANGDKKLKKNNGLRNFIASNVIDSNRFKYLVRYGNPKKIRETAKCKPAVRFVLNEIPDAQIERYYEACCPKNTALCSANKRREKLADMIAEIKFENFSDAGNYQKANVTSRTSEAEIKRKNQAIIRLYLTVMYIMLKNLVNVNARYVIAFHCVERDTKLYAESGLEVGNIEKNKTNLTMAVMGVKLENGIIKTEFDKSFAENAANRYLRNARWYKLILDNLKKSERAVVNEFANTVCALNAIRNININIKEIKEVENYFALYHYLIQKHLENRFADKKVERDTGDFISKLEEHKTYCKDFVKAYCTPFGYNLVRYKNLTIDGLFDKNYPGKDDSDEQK


What follows are binders tested against T1, EsCas13d, nuclease-dead (assay: crRNA (strand 1, pre-loaded); Mg2+; 40 mM Tris-HCl pH 7.5, 150 mM NaCl, 6 mM MgCl2, 1 mM DTT, 0.1% Tween-20, 0.2 mg/ml BSA; 25 C; 10 min per concentration, then washed). Conditions: tags: His6-TwinStrep-SUMO cleaved; N-terminal SNAP kept (SNAP-Surface 488); label: 3' end held by stalled T7 RNA polymerase.

Binder | Kd [nM]
target 1 MT 5'PFS GGG 3'PFS AAU (mixed) RNA 1: CACCCGUGCAAAAAUGCAGGGGUCUAAAACUGAGCGGAUAACCUCUCUAUGG RNA 2: GGGAAUGGAUCCACAUCUACGAAUUCGGGCCAUAGAGAGGUUAUCCGCUCAAAUAGAUCGGAAGAGCACACGU | 28 ± 4.5
target 1 MT 5'PFS CUU 3'PFS CCC (mixed) RNA 1: CACCCGUGCAAAAAUGCAGGGGUCUAAAACUGAGCGGAUAACCUCUCUAUGG RNA 2: GGGAAUGGAUCCACAUCUACGAAUUCCUUCCAUAGAGAGGUUAUCCGCUCACCCAGAUCGGAAGAGCACACGU | 80 ± 40
target 1 MT 5'PFS GAC 3'PFS CGA (mixed) RNA 1: CACCCGUGCAAAAAUGCAGGGGUCUAAAACUGAGCGGAUAACCUCUCUAUGG RNA 2: GGGAAUGGAUCCACAUCUACGAAUUCGACCCAUAGAGAGGUUAUCCGCUCACGAAGAUCGGAAGAGCACACGU | ~20
target 1 MT 5'PFS AAA 3'PFS UGA (mixed) RNA 1: CACCCGUGCAAAAAUGCAGGGGUCUAAAACUGAGCGGAUAACCUCUCUAUGG RNA 2: GGGAAUGGAUCCACAUCUACGAAUUCAAACCAUAGAGAGGUUAUCCGCUCAUGAAGAUCGGAAGAGCACACGU | 20.1 ± 3.45
target 1 MT 5'PFS UCC 3'PFS ACU (mixed) RNA 1: CACCCGUGCAAAAAUGCAGGGGUCUAAAACUGAGCGGAUAACCUCUCUAUGG RNA 2: GGGAAUGGAUCCACAUCUACGAAUUCUCCCCAUAGAGAGGUUAUCCGCUCAACUAGAUCGGAAGAGCACACGU | 14 ± 5
target 1 MT 5'PFS UAA 3'PFS UAA (mixed) RNA 1: CACCCGUGCAAAAAUGCAGGGGUCUAAAACUGAGCGGAUAACCUCUCUAUGG RNA 2: GGGAAUGGAUCCACAUCUACGAAUUCUAACCAUAGAGAGGUUAUCCGCUCAUAAAGAUCGGAAGAGCACACGU | 46.5 ± 12
target 1 MT 5'PFS CCU 3'PFS UCC (mixed) RNA 1: CACCCGUGCAAAAAUGCAGGGGUCUAAAACUGAGCGGAUAACCUCUCUAUGG RNA 2: GGGAAUGGAUCCACAUCUACGAAUUCCCUCCAUAGAGAGGUUAUCCGCUCAUCCAGAUCGGAAGAGCACACGU | 14 ± 5
target 1 MT 5'PFS UAA 3'PFS UAU (mixed) RNA 1: CACCCGUGCAAAAAUGCAGGGGUCUAAAACUGAGCGGAUAACCUCUCUAUGG RNA 2: GGGAAUGGAUCCACAUCUACGAAUUCUAACCAUAGAGAGGUUAUCCGCUCAUAUAGAUCGGAAGAGCACACGU | 29 ± 6
target 1 MT 5'PFS UCG 3'PFS AAU (mixed) RNA 1: CACCCGUGCAAAAAUGCAGGGGUCUAAAACUGAGCGGAUAACCUCUCUAUGG RNA 2: GGGAAUGGAUCCACAUCUACGAAUUCUCGCCAUAGAGAGGUUAUCCGCUCAAAUAGAUCGGAAGAGCACACGU | 30 ± 11
target 1 MT 5'PFS UUG 3'PFS AAC (mixed) RNA 1: CACCCGUGCAAAAAUGCAGGGGUCUAAAACUGAGCGGAUAACCUCUCUAUGG RNA 2: GGGAAUGGAUCCACAUCUACGAAUUCUUGCCAUAGAGAGGUUAUCCGCUCAAACAGAUCGGAAGAGCACACGU | ~41.5
target 1 MT 5'PFS CCU 3'PFS UCG (mixed) RNA 1: CACCCGUGCAAAAAUGCAGGGGUCUAAAACUGAGCGGAUAACCUCUCUAUGG RNA 2: GGGAAUGGAUCCACAUCUACGAAUUCCCUCCAUAGAGAGGUUAUCCGCUCAUCGAGAUCGGAAGAGCACACGU | 14.2 ± 4.1
target 1 MT 5'PFS GGC 3'PFS UGA (mixed) RNA 1: CACCCGUGCAAAAAUGCAGGGGUCUAAAACUGAGCGGAUAACCUCUCUAUGG RNA 2: GGGAAUGGAUCCACAUCUACGAAUUCGGCCCAUAGAGAGGUUAUCCGCUCAUGAAGAUCGGAAGAGCACACGU | 11.7 ± 1.45
target 1 MT 5'PFS UAA 3'PFS UAC (mixed) RNA 1: CACCCGUGCAAAAAUGCAGGGGUCUAAAACUGAGCGGAUAACCUCUCUAUGG RNA 2: GGGAAUGGAUCCACAUCUACGAAUUCUAACCAUAGAGAGGUUAUCCGCUCAUACAGAUCGGAAGAGCACACGU | 28 ± 7.5
target 1 insA 3' of 11,insG 3' of 2 (mixed) RNA 1: CACCCGUGCAAAAAUGCAGGGGUCUAAAACUGAGCGGAUAACCUCUCUAUGG RNA 2: GGGAAUGGAUCCACAUCUACGAAUUCGUACCAUAGAGAGGUAUAUCCGCUCGACCGAGAUCGGAAGAGCACACGU | 17.4 ± 0.8
target 1 MT 5'PFS CUC 3'PFS UAU (mixed) RNA 1: CACCCGUGCAAAAAUGCAGGGGUCUAAAACUGAGCGGAUAACCUCUCUAUGG RNA 2: GGGAAUGGAUCCACAUCUACGAAUUCCUCCCAUAGAGAGGUUAUCCGCUCAUAUAGAUCGGAAGAGCACACGU | ~60
target 1 MT 5'PFS AAA 3'PFS UGU (mixed) RNA 1: CACCCGUGCAAAAAUGCAGGGGUCUAAAACUGAGCGGAUAACCUCUCUAUGG RNA 2: GGGAAUGGAUCCACAUCUACGAAUUCAAACCAUAGAGAGGUUAUCCGCUCAUGUAGAUCGGAAGAGCACACGU | 40.5 ± 14.5
target 1 MT 5'PFS GAC 3'PFS CGC (mixed) RNA 1: CACCCGUGCAAAAAUGCAGGGGUCUAAAACUGAGCGGAUAACCUCUCUAUGG RNA 2: GGGAAUGGAUCCACAUCUACGAAUUCGACCCAUAGAGAGGUUAUCCGCUCACGCAGAUCGGAAGAGCACACGU | 48.5 ± 14
target 1 MT 5'PFS GGC 3'PFS UGG (mixed) RNA 1: CACCCGUGCAAAAAUGCAGGGGUCUAAAACUGAGCGGAUAACCUCUCUAUGG RNA 2: GGGAAUGGAUCCACAUCUACGAAUUCGGCCCAUAGAGAGGUUAUCCGCUCAUGGAGAUCGGAAGAGCACACGU | ~60
target 1 MT 5'PFS GGC 3'PFS UGU (mixed) RNA 1: CACCCGUGCAAAAAUGCAGGGGUCUAAAACUGAGCGGAUAACCUCUCUAUGG RNA 2: GGGAAUGGAUCCACAUCUACGAAUUCGGCCCAUAGAGAGGUUAUCCGCUCAUGUAGAUCGGAAGAGCACACGU | 16.1 ± 2.25
target 1 insC 3' of 20,insU 3' of 2 (mixed) RNA 1: CACCCGUGCAAAAAUGCAGGGGUCUAAAACUGAGCGGAUAACCUCUCUAUGG RNA 2: GGGAAUGGAUCCACAUCUACGAAUUCGUACCACUAGAGAGGUUAUCCGCUCUACCGAGAUCGGAAGAGCACACGU | 14.7 ± 1
target 1 MT 5'PFS CUU 3'PFS ACC (mixed) RNA 1: CACCCGUGCAAAAAUGCAGGGGUCUAAAACUGAGCGGAUAACCUCUCUAUGG RNA 2: GGGAAUGGAUCCACAUCUACGAAUUCCUUCCAUAGAGAGGUUAUCCGCUCAACCAGAUCGGAAGAGCACACGU | ~24
target 1 MT 5'PFS UUG 3'PFS CCU (mixed) RNA 1: CACCCGUGCAAAAAUGCAGGGGUCUAAAACUGAGCGGAUAACCUCUCUAUGG RNA 2: GGGAAUGGAUCCACAUCUACGAAUUCUUGCCAUAGAGAGGUUAUCCGCUCACCUAGAUCGGAAGAGCACACGU | 19.6 ± 4.1
target 1 MT 5'PFS UCG 3'PFS AAA (mixed) RNA 1: CACCCGUGCAAAAAUGCAGGGGUCUAAAACUGAGCGGAUAACCUCUCUAUGG RNA 2: GGGAAUGGAUCCACAUCUACGAAUUCUCGCCAUAGAGAGGUUAUCCGCUCAAAAAGAUCGGAAGAGCACACGU | 23 ± 8
target 1 MT 5'PFS GAC 3'PFS CGG (mixed) RNA 1: CACCCGUGCAAAAAUGCAGGGGUCUAAAACUGAGCGGAUAACCUCUCUAUGG RNA 2: GGGAAUGGAUCCACAUCUACGAAUUCGACCCAUAGAGAGGUUAUCCGCUCACGGAGAUCGGAAGAGCACACGU | ~35
target 1 MT 5'PFS UCC 3'PFS ACG (mixed) RNA 1: CACCCGUGCAAAAAUGCAGGGGUCUAAAACUGAGCGGAUAACCUCUCUAUGG RNA 2: GGGAAUGGAUCCACAUCUACGAAUUCUCCCCAUAGAGAGGUUAUCCGCUCAACGAGAUCGGAAGAGCACACGU | ~71.5
target 1 MT 5'PFS GGG 3'PFS AAA (mixed) RNA 1: CACCCGUGCAAAAAUGCAGGGGUCUAAAACUGAGCGGAUAACCUCUCUAUGG RNA 2: GGGAAUGGAUCCACAUCUACGAAUUCGGGCCAUAGAGAGGUUAUCCGCUCAAAAAGAUCGGAAGAGCACACGU | 50 ± 11.5
target 1 MT 5'PFS UUG 3'PFS ACC (mixed) RNA 1: CACCCGUGCAAAAAUGCAGGGGUCUAAAACUGAGCGGAUAACCUCUCUAUGG RNA 2: GGGAAUGGAUCCACAUCUACGAAUUCUUGCCAUAGAGAGGUUAUCCGCUCAACCAGAUCGGAAGAGCACACGU | 53 ± 23.5
target 1 MT 5'PFS GAC 3'PFS CGU (mixed) RNA 1: CACCCGUGCAAAAAUGCAGGGGUCUAAAACUGAGCGGAUAACCUCUCUAUGG RNA 2: GGGAAUGGAUCCACAUCUACGAAUUCGACCCAUAGAGAGGUUAUCCGCUCACGUAGAUCGGAAGAGCACACGU | 15.5 ± 5
